Assay results taken from patent publication US20230365662A1.
Where a chain is given by its changes, count along the chain named. In names and notes the source's numbering stands. Several values for one entry are separate records, joined by “and”; a condition that tells them apart may be missing. Equal entries are not always repeated.

B1: KB001 mouse Fab FASEBA VH Y59R (Fab, V domains shown)
VH: EVQLKQSGPGLVAPSQSLSITCTVSGFSLSIYSVHWVRQPPGKGLEWLGMIWGGGSSDRNSALKSRLSISKDNSKSQVFLKMNSLQTDDTAMYYCARNGNFYAMDYWGQGTSVTVSS
VL: QIVLTQSPAIMSASLGERVTMTCTASSSVSSSFLHWYQQKPGSSPQLWIYSTSNLASGVPARFSGSGSGTSYSLTISSMEAEDAATYYCHQYHHSPYIYTFGGGTKLEIK
B2: KB001 mouse Fab FASEBA VH Y59M/S571 (Fab, V domains shown)
VH: B1 VH with S57I, R59M
VL: B1 VL
B3: KB001 mouse Fab FASEBA VH Y59F (Fab, V domains shown)
VH: B1 VH with R59F
VL: B1 VL
B4: KB001 mouse Fab FASEBA VH N60S (Fab, V domains shown)
VH: B1 VH with R59Y, N60S
VL: B1 VL
B5: KB001 mouse Fab FASEBA VH N60P (Fab, V domains shown)
VH: B1 VH with R59Y, N60P
VL: B1 VL
B6: KB001 mouse Fab FASEBA VH N60T (Fab, V domains shown)
VH: B1 VH with R59Y, N60T
VL: B1 VL
B7: KB001 mouse Fab FASEBA VH N60Q (Fab, V domains shown)
VH: B1 VH with R59Y, N60Q
VL: B1 VL
B8: KB001 mouse Fab FASEBA VH S61W (Fab, V domains shown)
VH: B1 VH with R59Y, S61W
VL: B1 VL
B9: KB001 mouse Fab FASEBA VH S61Y (Fab, V domains shown)
VH: B1 VH with R59Y, S61Y
VL: B1 VL
B10: KB001 mouse Fab FASEBA VH S61R (Fab, V domains shown)
VH: B1 VH with R59Y, S61R
VL: B1 VL
B11: KB001 mouse Fab FASEBA VH S61G (Fab, V domains shown)
VH: B1 VH with R59Y, S61G
VL: B1 VL
B12: KB001 mouse Fab FASEBA VH S61F (Fab, V domains shown)
VH: B1 VH with R59Y, S61F
VL: B1 VL
B13: KB001 mouse Fab FASEBA VH S61M (Fab, V domains shown)
VH: B1 VH with R59Y, S61M
VL: B1 VL
B14: KB001 mouse Fab FASEBA VH S61C (Fab, V domains shown)
VH: B1 VH with R59Y, S61C
VL: B1 VL
B15: KB001 mouse Fab FASEBA VH S61K (Fab, V domains shown)
VH: B1 VH with R59Y, S61K
VL: B1 VL
B16: KB001 mouse Fab FASEBA VH S61H (Fab, V domains shown)
VH: B1 VH with R59Y, S61H
VL: B1 VL
B17: KB001 mouse Fab FASEBA VH S61L (Fab, V domains shown)
VH: B1 VH with R59Y, S61L
VL: B1 VL
B18: KB001 mouse Fab FASEBA VH A62N (Fab, V domains shown)
VH: B1 VH with R59Y, A62N
VL: B1 VL
B19: KB001 mouse Fab FASEBA VH A62M (Fab, V domains shown)
VH: B1 VH with R59Y, A62M
VL: B1 VL
B20: KB001 mouse Fab FASEBA VH A62G (Fab, V domains shown)
VH: B1 VH with R59Y, A62G
VL: B1 VL
B21: KB001 mouse Fab FASEBA VH A62Q (Fab, V domains shown)
VH: B1 VH with R59Y, A62Q
VL: B1 VL
B22: KB001 mouse Fab FASEBA VH A62H (Fab, V domains shown)
VH: B1 VH with R59Y, A62H
VL: B1 VL
B23: KB001 mouse Fab FASEBA VH A62V (Fab, V domains shown)
VH: B1 VH with R59Y, A62V
VL: B1 VL
B24: KB001 mouse Fab FASEBA VH A62D (Fab, V domains shown)
VH: B1 VH with R59Y, A62D
VL: B1 VL
B25: KB001 mouse Fab FASEBA VH A62L (Fab, V domains shown)
VH: B1 VH with R59Y, A62L
VL: B1 VL
B26: KB001 mouse Fab FASEBA VH A62F (Fab, V domains shown)
VH: B1 VH with R59Y, A62F
VL: B1 VL
B27: KB001 mouse Fab FASEBA VH A62I (Fab, V domains shown)
VH: B1 VH with R59Y, A62I
VL: B1 VL
B28: KB001 mouse Fab FASEBA VH A62R (Fab, V domains shown)
VH: B1 VH with R59Y, A62R
VL: B1 VL
B29: KB001 mouse Fab FASEBA VH A62E (Fab, V domains shown)
VH: B1 VH with R59Y, A62E
VL: B1 VL
B30: KB001 mouse Fab FASEBA VH L63V (Fab, V domains shown)
VH: B1 VH with R59Y, L63V
VL: B1 VL
B31: KB001 mouse Fab FASEBA VH L63Y (Fab, V domains shown)
VH: B1 VH with R59Y, L63Y
VL: B1 VL
B32: KB001 mouse Fab FASEBA VH L63H (Fab, V domains shown)
VH: B1 VH with R59Y, L63H
VL: B1 VL
B33: KB001 mouse Fab FASEBA VH L63M (Fab, V domains shown)
VH: B1 VH with R59Y, L63M
VL: B1 VL
B34: KB001 mouse Fab FASEBA VH L63F (Fab, V domains shown)
VH: B1 VH with R59Y, L63F
VL: B1 VL
B35: KB001 mouse Fab FASEBA VH K64I (Fab, V domains shown)
VH: B1 VH with R59Y, K64I
VL: B1 VL
B36: KB001 mouse Fab FASEBA VH K64V (Fab, V domains shown)
VH: B1 VH with R59Y, K64V
VL: B1 VL
B37: KB001 mouse Fab FASEBA VH K64M (Fab, V domains shown)
VH: B1 VH with R59Y, K64M
VL: B1 VL
B38: KB001 mouse Fab FASEBA VH K64G (Fab, V domains shown)
VH: B1 VH with R59Y, K64G
VL: B1 VL
B39: KB001 mouse Fab FASEBA VH K64H (Fab, V domains shown)
VH: B1 VH with R59Y, K64H
VL: B1 VL
B40: KB001 mouse Fab FASEBA VH K64S (Fab, V domains shown)
VH: B1 VH with R59Y, K64S
VL: B1 VL
B41: KB001 mouse Fab FASEBA VH K64Y (Fab, V domains shown)
VH: B1 VH with R59Y, K64Y
VL: B1 VL

Each binder was assayed against HRgpA-6H (Porphyromonas gingivalis) (UniProt P28784) (assay: ELISA on coated HRgpA-6H).
Sequence of UniProt P28784 (P28784 228-991 limits assumed): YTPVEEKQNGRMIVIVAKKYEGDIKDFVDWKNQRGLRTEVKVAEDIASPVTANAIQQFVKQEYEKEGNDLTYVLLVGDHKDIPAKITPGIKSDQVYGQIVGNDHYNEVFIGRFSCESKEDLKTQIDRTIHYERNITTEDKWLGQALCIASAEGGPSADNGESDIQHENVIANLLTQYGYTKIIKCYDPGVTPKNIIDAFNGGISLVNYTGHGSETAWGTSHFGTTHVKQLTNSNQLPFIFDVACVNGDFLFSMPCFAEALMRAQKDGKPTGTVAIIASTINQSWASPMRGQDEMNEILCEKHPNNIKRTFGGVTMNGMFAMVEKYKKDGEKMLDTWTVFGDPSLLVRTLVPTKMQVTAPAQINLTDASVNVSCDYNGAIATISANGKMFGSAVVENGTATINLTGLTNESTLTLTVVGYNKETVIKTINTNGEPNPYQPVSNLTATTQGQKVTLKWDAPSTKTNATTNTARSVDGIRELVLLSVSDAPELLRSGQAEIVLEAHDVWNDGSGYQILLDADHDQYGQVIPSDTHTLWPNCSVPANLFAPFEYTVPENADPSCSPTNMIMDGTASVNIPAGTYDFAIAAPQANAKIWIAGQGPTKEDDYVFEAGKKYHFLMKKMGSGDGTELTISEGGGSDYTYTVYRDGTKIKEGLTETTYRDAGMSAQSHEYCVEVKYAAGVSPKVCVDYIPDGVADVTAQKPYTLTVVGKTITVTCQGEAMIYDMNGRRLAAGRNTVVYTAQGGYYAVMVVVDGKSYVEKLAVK

Binder | OD450nm | Ratio OD(Variant)/OD(WT)
B1 | 0.633 | 0.8
B2 | 0.701 | 0.886
B3 | 0.668 | 0.845
B4 | 0.452 | 0.916
B5 | 0.44 and 0.428 | 0.892 and 0.867
B6 | 0.406 | 0.823
B7 | 0.447 and 0.402 | 0.906 and 0.815
B8 | 0.435 and 0.429 | 0.881 and 0.869
B9 | 0.423 | 0.857
B10 | 0.438 | 0.888
B11 | 0.46 and 0.476 | 0.932 and 0.965
B12 | 0.432 and 0.473 | 0.875 and 0.958
B13 | 0.493 and 0.479 | 0.999 and 0.971
B14 | 0.431 | 0.873
B15 | 0.49 | 0.993
B16 | 0.469 | 0.95
B17 | 0.448 | 0.908
B18 | 0.721 and 0.799 | 0.825 and 0.914
B19 | 0.77 and 0.735 | 0.881 and 0.841
B20 | 0.813 and 0.785 | 0.93 and 0.898
B21 | 0.737 and 0.869 | 0.843 and 0.994

Binder | OD450nm | Ratio OD(Variant)/OD(WT)
B22 | 0.819 and 0.834 and 0.844 | 0.937 and 0.954 and 0.966
B23 | 0.742 and 0.757 | 0.849 and 0.866
B24 | 0.853 and 0.851 | 0.976 and 0.974
B25 | 0.812 | 0.929
B26 | 0.843 and 0.733 | 0.965 and 0.839
B27 | 0.702 and 0.808 | 0.803 and 0.924
B28 | 0.733 and 0.847 and 0.809 | 0.839 and 0.969 and 0.926
B29 | 0.854 | 0.977
B30 | 0.784 and 0.77 and 0.778 | 0.897 and 0.881 and 0.89
B31 | 0.836 and 0.846 and 0.801 | 0.957 and 0.968 and 0.916
B32 | 0.818 and 0.843 and 0.822 | 0.936 and 0.965 and 0.941
B33 | 0.8 | 0.915
B34 | 0.743 | 0.85
B35 | 0.743 and 0.756 and 0.715 | 0.898 and 0.914 and 0.865
B36 | 0.715 and 0.714 | 0.865 and 0.863
B37 | 0.799 and 0.757 and 0.78 | 0.966 and 0.915 and 0.943
B38 | 0.806 | 0.975
B39 | 0.752 | 0.909
B40 | 0.808 | 0.977
B41 | 0.763 | 0.923
